Laboratory results reported in paper PMC3954913 (Molecular microbiology, 2014).

Molecular target: T1, pallilysin (Tp0751_C24-P237) (Treponema pallidum, UniProt O83732 24-237)
T1 sequence (looked up): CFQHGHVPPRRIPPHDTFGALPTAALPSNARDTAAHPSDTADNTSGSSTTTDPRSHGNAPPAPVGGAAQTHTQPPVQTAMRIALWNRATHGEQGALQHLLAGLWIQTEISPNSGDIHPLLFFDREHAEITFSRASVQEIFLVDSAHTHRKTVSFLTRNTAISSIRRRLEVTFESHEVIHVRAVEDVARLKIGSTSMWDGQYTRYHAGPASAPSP
Assay: dynamic light scattering

B1: recombinant Tp0750_G23-D223 (natural protein, UniProt O83731 23-223, looked up)
chain: GERTVPVDIFLMIDKSRSMQEPGKFSSLHRWVRDEFVSSMTIQGDWITVYQFYEKPEELITLTLRSEQDRDKIISVVDSIVPNGRYTDIGRALDTVWEIQEKRKDNNRHKVLLLVTDLEHDAPLTSKYRGKQRSFQSPYLVRARRVKHDNWYEITLDMAVHDRVAHTARELYRSIAAAHSKRPTPTPPAKESSPRYTPSLD
binding result: binds
